Results as given in patent US20230174642A1, “AFFINITY-MATURATED ANTI-ASIC1a ANTIBODIES” (SHANGHAITECH UNIVERSITY, priority 2019, published 2023).

Legend:
[1] = target: T1, hASIC1a on CHO-K1 cells stably expressing hASIC1a (human, UniProt P78348 1-528); test: cell-based or functional assay
T1 sequence (looked up): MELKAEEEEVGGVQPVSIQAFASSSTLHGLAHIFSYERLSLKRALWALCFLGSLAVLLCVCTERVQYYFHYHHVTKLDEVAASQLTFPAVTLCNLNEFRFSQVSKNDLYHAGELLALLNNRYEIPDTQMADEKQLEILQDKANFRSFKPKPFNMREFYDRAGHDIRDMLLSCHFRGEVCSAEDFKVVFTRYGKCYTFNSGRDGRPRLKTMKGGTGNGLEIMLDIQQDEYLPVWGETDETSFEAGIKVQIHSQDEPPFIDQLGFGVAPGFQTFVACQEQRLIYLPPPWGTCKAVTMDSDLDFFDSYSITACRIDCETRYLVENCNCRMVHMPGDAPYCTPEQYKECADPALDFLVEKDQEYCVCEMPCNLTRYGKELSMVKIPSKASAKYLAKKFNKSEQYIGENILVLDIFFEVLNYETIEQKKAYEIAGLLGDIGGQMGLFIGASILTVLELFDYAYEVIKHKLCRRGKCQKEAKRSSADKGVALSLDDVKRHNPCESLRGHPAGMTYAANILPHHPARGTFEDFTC

[2] = target: T2, human ASIC3a (hASIC3a-eYFP) (Homo sapiens, UniProt Q9UHC3); test: FACS-based binding assay, transiently transfected CHO-K1 cells (isotype selectivity)
T2 construct: expressed in transfected cells; host or cells: CHO-K1 (transient)
T2 sequence (Q9UHC3 1-531): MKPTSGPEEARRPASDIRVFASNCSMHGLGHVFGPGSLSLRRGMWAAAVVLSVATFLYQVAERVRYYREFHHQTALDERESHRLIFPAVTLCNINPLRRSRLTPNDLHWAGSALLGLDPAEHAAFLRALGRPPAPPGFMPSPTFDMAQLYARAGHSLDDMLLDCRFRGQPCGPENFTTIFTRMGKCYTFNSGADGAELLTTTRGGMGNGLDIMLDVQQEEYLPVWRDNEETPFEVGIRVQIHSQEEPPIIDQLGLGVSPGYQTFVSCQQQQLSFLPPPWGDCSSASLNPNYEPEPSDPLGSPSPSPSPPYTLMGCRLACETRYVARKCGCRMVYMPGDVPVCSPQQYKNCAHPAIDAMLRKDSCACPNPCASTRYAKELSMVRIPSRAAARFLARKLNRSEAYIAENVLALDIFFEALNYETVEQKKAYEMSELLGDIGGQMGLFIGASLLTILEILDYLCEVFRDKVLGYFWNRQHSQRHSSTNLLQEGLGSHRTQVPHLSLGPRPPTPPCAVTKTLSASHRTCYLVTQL
From the text: To examine the ASIC isotype selectivity of ASC06-IgG1 affinity-matured antibodies, plasmids encoding fusion proteins of eYFP with isoforms of […] were constructed. These plasmids included those encoding human ASIC1b (hASIC1b-eYFP), human ASIC2a (hASIC2a-eYFP), and human ASIC3a (hASIC3a-eYFP). CHO-K1 cells were transiently transfected with these plasmids and used in a FACS-based binding assay disclosed herein. Binding of ASC06-IgG1 to CHO-K1 cells expressing human ASIC1a-eYFP (hASIC1a-eYFP) was used as a positive control (data not shown and FIG. 2), and an isotype control was used as a negative control for binding (NC).

[3] = target: T3, ASIC1a (Homo sapiens, UniProt P78348); test: FLIPR-based fluorescent membrane potential (FMP) assay; assay type: cell-based; settings: increasing doses, pH 6
T3 construct: expressed in transfected cells
T3 sequence (P78348 1-528): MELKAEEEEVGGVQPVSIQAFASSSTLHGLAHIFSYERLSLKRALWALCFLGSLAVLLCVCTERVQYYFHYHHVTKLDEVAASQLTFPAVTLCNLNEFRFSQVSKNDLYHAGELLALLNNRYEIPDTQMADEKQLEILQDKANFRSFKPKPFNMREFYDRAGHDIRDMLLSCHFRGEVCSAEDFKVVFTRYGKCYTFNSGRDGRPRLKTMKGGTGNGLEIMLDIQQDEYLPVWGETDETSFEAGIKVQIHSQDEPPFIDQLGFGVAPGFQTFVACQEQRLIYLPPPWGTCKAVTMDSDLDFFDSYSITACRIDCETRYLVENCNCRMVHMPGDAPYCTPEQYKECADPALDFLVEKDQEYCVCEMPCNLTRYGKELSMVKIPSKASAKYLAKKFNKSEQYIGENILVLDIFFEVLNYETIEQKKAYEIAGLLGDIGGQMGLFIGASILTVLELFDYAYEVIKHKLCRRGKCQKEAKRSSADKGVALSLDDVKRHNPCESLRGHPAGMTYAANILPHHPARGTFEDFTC
From the text: A fluorescence-based assay using the FLIPR Membrane Potential Assay Kit (FMP kit) (Molecular Devices) was used for functional characterization of ASC06-IgG1 and the affinity-matured derivatives thereof. Specifically, the role of ASIC1a in acidosis and the effect of the antibodies of current disclosure was probed further. The FMP dye in the kit is a lipophilic, anionic, bis-oxonol dye, which permits a sensitive evaluation of changes in membrane potential with a more rapid response time. Using the FMP kit, a sensitive cell-based assay to detect acid-induced ASIC1a currents was developed using a cell line stably expressing ASIC1a. The ASIC1a-expressing stable cells were seeded in 96-well plates. The cells were treated with different concentrations of ASC06-IgG1. Untreated cells were used as a negative control. ASIC1a was stimulated by inducing acidosis by decreasing the extracellular pH to 6, and the changes in the fluorescent signal of the FMP dye were measured. An isotype control was used as a negative control for binding. […] The assay was applied to detect the efficiency of inhibition of ASIC1a currents by ASC06-IgG1, and affinity-matured derivatives thereof.
Using similar assays, the IC50 values for inhibition of ASIC1a currents were calculated based on the maximal fluorescent intensity of each concentration of antibodies compared to the negative control.

[4] = target: T3, ASIC1a; test: FLIPR-based assay of ASIC1a-mediated calcium influx; assay type: cell-based; settings: increasing doses, pH 6
Method: The calcium influx of the ASIC1a channel was measured using a Fluorescence Imaging Plate Reader (FLIPR) instrument by measuring the fluorescent signal generated by the intracellular calcium indicator dye Calcium 5 (Molecular Devices) in a stable cell line expressing hASIC1a-m Cherry fusion.
The inhibition to calcium influx the affinity-matured ASC06-IgG1 derivative antibodies was also measured using the FLIPR-based assay. Using these assays, the IC50 values were calculated based on the maximal fluorescent intensity of the intracellular calcium indicator dye.

B1: ASC06-03-IgG1 (antibody, V domains shown)
VH: QVQLQQSGGGLVQPGGSLRLSCAASGFTFSSYAMSWVRQAPGKGLEWVSAISGSGGSTYYADSVKGRFTISRDNSKNTLYLQMNSLRAEDTAVYYCAKDSFYGRAKGSWGQGTLVTVSS
VL: QSALTQPASVSGSPGQSITISCTGTSSDVGAYNYVSWYQQQPGKAPKLMIYGVSNRPSGVSNRFSGSKSGNAASLTISGLQAEDEADYYCSSYTSSSTYVFGTGTKLTVLG
notes: Full length IgG1
Percent inhibition of the acid induced-hASIC1a currents, 30 nM antibody (Patch Clamp) [1]: 79.4%
Percent inhibition of the acid induced-hASIC1a currents, 100 nM antibody (Patch Clamp) [1]: 89.7%

B2: ASC06-01-IgG1 (antibody, V domains shown)
VH: QVQLQQSGGGLVQPGGSLRLSCAASGFTFSSYAMSWVRQAPGKGLEWVSAISGSGGSTYYADSVKGRFTISRDNSKNTLYLQMNSLRAEDTAVYYCAKDSYFGYSKGDWGQGTLVTVSS
VL: QSALTQPASVSGSPGQSITISCTGTSSDVGAYNYVSWYQQQPGKAPKLMIYGVSNRPSGVSNRFSGSKSGNAASLTISGLQAEDEADYYCSSYTSSSTYVFGTGTKLTVLG
notes: Full length IgG1
Percent inhibition of the acid induced-hASIC1a currents, 30 nM antibody (Patch Clamp) [1]: 20%
Percent inhibition of the acid induced-hASIC1a currents, 100 nM antibody (Patch Clamp) [1]: 49%

B3: ASC06-02-IgG1 (antibody, V domains shown)
VH: QVQLQQSGGGLVQPGGSLRLSCAASGFTFSSYAMSWVRQAPGKGLEWVSAISGSGGSTYYADSVKGRFTISRDNSKNTLYLQMNSLRAEDTAVYYCAKDSFFGRAKGSWGQGTLVTVSS
VL: QSALTQPASVSGSPGQSITISCTGTSSDVGAYNYVSWYQQQPGKAPKLMIYGVSNRPSGVSNRFSGSKSGNAASLTISGLQAEDEADYYCSSYTSSSTYVFGTGTKLTVLG
notes: Full length IgG1
Percent inhibition of the acid induced-hASIC1a currents, 30 nM antibody (Patch Clamp) [1]: 94.6%
Percent inhibition of the acid induced-hASIC1a currents, 100 nM antibody (Patch Clamp) [1]: 97.2%

B4: ASC06-04-IgG1 (antibody, V domains shown)
VH: QVQLQQSGGGLVQPGGSLRLSCAASGFTFSSYAMSWVRQAPGKGLEWVSAISGSGGSTYYADSVKGRFTISRDNSKNTLYLQMNSLRAEDTAVYYCAKDSFYGRAKGVWGQGTLVTVSS
VL: QSALTQPASVSGSPGQSITISCTGTSSDVGAYNYVSWYQQQPGKAPKLMIYGVSNRPSGVSNRFSGSKSGNAASLTISGLQAEDEADYYCSSYTSSSTYVFGTGTKLTVLG
notes: Full length IgG1
Percent inhibition of the acid induced-hASIC1a currents, 100 nM antibody (Patch Clamp) [1]: 96.7%

B5: ASC06-IgG1 (antibody, V domains shown)
VH: QVQLQQSGGGLVQPGGSLRLSCAASGFTFSSYAMSWVRQAPGKGLEWVSAISGSGGSTYYADSVKGRFTISRDNSKNTLYLQMNSLRAEDTAVYYCAKDSFYGYSKGDWGQGTLVTVSS
VL: QSALTQPASVSGSPGQSITISCTGTSSDVGAYNYVSWYQQQPGKAPKLMIYGVSNRPSGVSNRFSGSKSGNAASLTISGLQAEDEADYYCSSYTSSSTYVFGTGTKLTVLG
notes: Tested as full length IgG1; also called WT antibody ASC06-IgG1; parental ASC06-IgG1 antibody
Percent inhibition of the acid induced-hASIC1a currents, 30 nM antibody (Patch Clamp) [1]: 35.5%
Percent inhibition of the acid induced-hASIC1a currents, 100 nM antibody (Patch Clamp) [1]: 55.5%

B6: ASC06-01-IgG1: affinity-matured ASC06 derivative, VH-CDR3 DSYFGYSKGD (SEQ ID NO: 11) (antibody, V domains shown)
VH: QVQLQQSGGGLVQPGGSLRLSCAASGFTFSSYAMSWVRQAPGKGLEWVSAISGSGGSTYYADSVKGRFTISRDNSKNTLYLQMNSLRAEDTAVYYCAKDSYFGYSKGDWGQGTLVTVSS
VL: QSALTQPASVSGSPGQSITISCTGTSSDVGAYNYVSWYQQQPGKAPKLMIYGVSNRPSGVSNRFSGSKSGNAASLTISGLQAEDEADYYCSSYTSSSTYVFGTGTKLTVLG
binding to the hASIC3a isoform [2]: no detectable binding

B7: ASC06-02-IgG1: affinity-matured ASC06 derivative, VH-CDR3 DSFFGRAKGS (SEQ ID NO: 13) (antibody, V domains shown)
VH: QVQLQQSGGGLVQPGGSLRLSCAASGFTFSSYAMSWVRQAPGKGLEWVSAISGSGGSTYYADSVKGRFTISRDNSKNTLYLQMNSLRAEDTAVYYCAKDSFFGRAKGSWGQGTLVTVSS
VL: QSALTQPASVSGSPGQSITISCTGTSSDVGAYNYVSWYQQQPGKAPKLMIYGVSNRPSGVSNRFSGSKSGNAASLTISGLQAEDEADYYCSSYTSSSTYVFGTGTKLTVLG
binding to the hASIC3a isoform [2]: no detectable binding

B8: ASC06-03-IgG1: affinity-matured ASC06 derivative, VH-CDR3 DSFYGRAKGS (SEQ ID NO: 15) (antibody, V domains shown)
VH: QVQLQQSGGGLVQPGGSLRLSCAASGFTFSSYAMSWVRQAPGKGLEWVSAISGSGGSTYYADSVKGRFTISRDNSKNTLYLQMNSLRAEDTAVYYCAKDSFYGRAKGSWGQGTLVTVSS
VL: QSALTQPASVSGSPGQSITISCTGTSSDVGAYNYVSWYQQQPGKAPKLMIYGVSNRPSGVSNRFSGSKSGNAASLTISGLQAEDEADYYCSSYTSSSTYVFGTGTKLTVLG
binding to the hASIC3a isoform [2]: no detectable binding

B9: ASC06-04-IgG1: affinity-matured ASC06 derivative, VH-CDR3 DSFYGRAKGV (SEQ ID NO: 17) (antibody, V domains shown)
VH: QVQLQQSGGGLVQPGGSLRLSCAASGFTFSSYAMSWVRQAPGKGLEWVSAISGSGGSTYYADSVKGRFTISRDNSKNTLYLQMNSLRAEDTAVYYCAKDSFYGRAKGVWGQGTLVTVSS
VL: QSALTQPASVSGSPGQSITISCTGTSSDVGAYNYVSWYQQQPGKAPKLMIYGVSNRPSGVSNRFSGSKSGNAASLTISGLQAEDEADYYCSSYTSSSTYVFGTGTKLTVLG
binding to the hASIC3a isoform [2]: no detectable binding

B10: ASC06-IgG1: parental (WT) ASIC1a-specific antagonist antibody; VL SEQ ID NO: 2, VH SEQ ID NO: 7, VH-CDR3 DSFYGYSKGD (antibody, V domains shown)
VH: QVQLQQSGGGLVQPGGSLRLSCAASGFTFSSYAMSWVRQAPGKGLEWVSAISGSGGSTYYADSVKGRFTISRDNSKNTLYLQMNSLRAEDTAVYYCAKDSFYGYSKGDWGQGTLVTVSS
VL: QSALTQPASVSGSPGQSITISCTGTSSDVGAYNYVSWYQQQPGKAPKLMIYGVSNRPSGVSNRFSGSKSGNAASLTISGLQAEDEADYYCSSYTSSSTYVFGTGTKLTVLG
modifications: IgG1 constant regions; Amino acid sequence VH of ASC06; Amino acid sequence VL of ASC06
inhibition of the fluorescent intensities (ASIC1a-mediated current) [3]: dose-dependent inhibition
inhibition of calcium influx [4]: dose-dependent inhibition
binding to the hASIC3a isoform [2]: no detectable binding
